The record followed here is patent publication US20100047232A1 (Genentech, published 2010).

B2: AP-Nogo66 (ligand, human, UniProt Q9NQC3 1055-1120, looked up)
chain: RIYKGVIQAIQKSDEGHPFRAYLESEVAISEELVQKYSNSALGHVNCTIKELRRLFLVDDLVDSLK
notes: also called AO-Nogo66; not shown: FLAG tag at the N-terminus; human placental alkaline phosphatase (AP)

Assay [1] deals with B2. In words: AP activity on transfected COS cells after incubation with AP-Nogo66. As for the experimental part:
In particular, on Day 1, COS7 cells were plated at a density of 85,000 cells per well in 12-well plates. On Day 2, 1 mg of pooled cDNA's were transfected per well using the lipid-based transfection reagent FuGENE 6 (Roche). On Day 4, screening was performed. Briefly, culture medium was removed from cells and replaced with 0.5 ml of 293 cell-conditioned medium containing AP-fusion bait proteins (20-50 nM). Cells were incubated at room temperature for 90 minutes. The cells were then washed 3 times with phosphate-buffered saline (PBS), fixed for 7 minutes with 4% paraformaldehyde, washed 3 times in HEPES-buffered saline (HBS), and heat inactivated at 65° C. for 90 minutes to destroy endogenous AP activity. The cells were washed once in AP Buffer (100 mM NaCl, 5 mM MgCl₂, 100 mM Tris pH 9.5), and incubated in chromogenic substrate (Western Blue, Promega), and analyzed for presence of reaction product one hour after incubation, and again after overnight incubation. Positive cells were identified by the presence of dark blue precipitate over the surface of the membrane. Positive pools were further broken down to identify individual positive clones by subsequent rounds of screening.
To confirm Nogo66 binding to LILRB2 (SEQ ID NO: 2), and to test if Nogo66 binds to the murine orthologue PirB (SEQ ID NO: 1), binding assays similar to those described in Example 1 were carried out. […]

Assay [2] concerns the target T1, Nogo Receptor (hit from the human cDNA library) (human, UniProt Q9BZR6 27-447).
T1 construct: whole, on cells; also called NgR; NgR1
T1 sequence (looked up): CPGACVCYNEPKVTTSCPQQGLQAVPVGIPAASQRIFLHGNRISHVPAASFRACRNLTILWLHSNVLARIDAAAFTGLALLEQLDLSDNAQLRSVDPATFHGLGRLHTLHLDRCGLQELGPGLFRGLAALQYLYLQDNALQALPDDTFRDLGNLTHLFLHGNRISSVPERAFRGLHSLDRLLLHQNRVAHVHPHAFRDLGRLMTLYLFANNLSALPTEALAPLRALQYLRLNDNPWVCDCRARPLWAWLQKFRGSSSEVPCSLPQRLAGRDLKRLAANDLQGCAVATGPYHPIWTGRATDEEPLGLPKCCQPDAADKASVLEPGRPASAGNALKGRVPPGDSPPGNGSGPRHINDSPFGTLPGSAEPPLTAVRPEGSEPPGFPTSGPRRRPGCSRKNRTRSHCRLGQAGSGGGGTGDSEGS
In words: expression cloning, AP-fusion bait (20-50 nM) on COS7 cells transfected with human cDNA pools. An excerpt: (§1) To identify novel receptors for inhibitory myelin proteins, an expression cloning approach was taken. As bait, constructs were generated that fused Alkaline Phosphatase (AP) to the N- and/or C-terminus of the following characterized myelin inhibitors (human cDNA used): Nogo66, two additional inhibitory domains of NogoA (NiRD2 and NiG20) (Oertle T, J. Neurosci. 2003, 23(13): 5393-406), MAG, and OMgp. These constructs were transfected into 293 cells to produce conditioned medium (in DMEM/2% FBS) containing the bait proteins. The cDNA library used in the screen was comprised of full-length human cDNA clones in expression-ready vectors generated by Origene. These cDNAs were compiled, arrayed, and pooled. Pools of approximately 100 cDNA's were transiently transfected into COS7 cells.
(§2) In particular, on Day 1, COS7 cells were plated at a density of 85,000 cells per well in 12-well plates. On Day 2, 1 mg of pooled cDNA's were transfected per well using the lipid-based transfection reagent FuGENE 6 (Roche). On Day 4, screening was performed. […] The cells were washed once in AP Buffer (100 mM NaCl, 5 mM MgCl₂, 100 mM Tris pH 9.5), and incubated in chromogenic substrate (Western Blue, Promega), and analyzed for presence of reaction product one hour after incubation, and again after overnight incubation. […]

Assay [3] has as its target B2. The assay is described as above.
Description: as §1, §2

B1: PirB (paired-immunoglobulin-like receptor B), mouse (receptor)
chain: SLPKPILRVQPDSVVSRWTKVTFFCEETIGANEYRLYKDGKLYKTVTKNKQKPANKAEFSLSNVDLRNAGQYRCSYSTQYKSSGYSDPLELVVTGDYWTPSLLAQASPVVTSGGYVTLQCESWHNDHKFILTVEGPQKLSWTQDSQYNYSTRKYHALFSVGPVTPNQRWICRCYSYDRNRPYVWSPPSESVELLVSGNLQKPTIKAEPGPVIASKRAMTIWCQGNLDAEVYFLHNEGSQKTQSTQTLQQPGNKGKFFIPSMTRQHAGQYRCYCYGSAGWSQPSDTLELVVTGIYEHYKPRLSVLPSPVVTAGGNMTLHCASDFHYDKFILTKEDKKFGNSLDTEHISSSRQYRALFIIGPTTPTHTGTFRCYGYFKNAPQLWSVPSDLQQILISGLSKKPSLLTHQGHILDPGMTLTLQCYSDINYDRFALHKVGGADIMQHSSQQTDTGFSVANFTLGYVSSSTGGQYRCYGAHNLSSEWSASSEPLDILITGQLPLTPSLSVKPNHTVHSGETVSLLCWSMDSVDTFILSKEGSAQQPLRLKSKSHDQQSQAEFSMSAVTSHLSGTYRCYGAQNSSFYLLSSASAPVELTVSGPIETSTPPPTMSMPLGGLHMYLKALIGVSVAFILFLFILIFILLRRRHRGKFRKDVQKEKDLQLSSGAEEPITRKGELQKRPNPAAATQEESLYASVEDMQTEDGVELNSWTPPEEDPQGETYAQVKPSRLRKAGHVSPSVMSREQLNTEYEQAEEGQGANNQAAESGESQDVTYAQLCSRTLRQGAAASPLSQAGEAPEEPSVYATLAAARPEAVPKDVEQ
notes: Expressed from cDNA in transfected COS7 cells; also called murine orthologue PirB
For the molecule B1, in assay [1], the binding result is “binds”.
Take B2: the binding result in assay [2] is given as “binds”.

B3: LILRB2, transcript variant 1 (leukocyte immunoglobulin-like receptor, subfamily B, member 2) (receptor)
chain: QTGTIPKPTLWAEPDSVITQGSPVTLSCQGSLEAQEYRLYREKKSASWITRIRPELVKNGQFHIPSITWEHTGRYGCQYYSRARWSELSDPLVLVMTGAYPKPTLSAQPSPVVTSGGRVTLQCESQVAFGGFILCKEGEDEHPQCLNSQPHARGSSRAIFSVGPVSPNRRWSHRCYGYDLNSPYVWSSPSDLLELLVPGVSKKPSLSVQPGPVVAPGESLTLQCVSDVGYDRFVLYKEGERDLRQLPGRQPQAGLSQANFTLGPVSRSYGGQYRCYGAYNLSSEWSAPSDPLDILITGQIHGTPFISVQPGPTVASGENVTLLCQSWRQFHTFLLTKAGAADAPLRLRSIHEYPKYQAEFPMSPVTSAHAGTYRCYGSLNSDPYLLSHPSEPLELVVSGPSMGSSPPPTGPISTPAGPEDQPLTPTGSDPQSGLGRHLGVVIGILVAVVLLLLLLLLLFLILRHRRQGKHWTSTQRKADFQHPAGAVGPEPTDRGLQWRSSPAADAQEENLYAAVKDTQPEDGVEMDTRAAASEAPQDVTYAQLHSLTLRRKATEPPPSQEREPPAEPSIYATLAIH
notes: Expressed from full-length human cDNA in transfected COS7 cells; also called LIRB2; MIG10
Regarding B3, in assay [3], the binding result was “binds”.
